In the DeepSol protein solubility set:

Assay: soluble on expression in E. coli; label from the status in PepcDB or PDB records

Row | Sequence | soluble on expression in E. coli
1 | MGSDKIHHHHHHMRLFSKLFNIRDNTVVERPRSLTGEGIAAKTQTRVAEKISSTPNDTDTVAAPTVDVAALFYSLLFATSHKDTGGIANNLEKRLIGNVESALADPKVIAEKVFKLPHDLIELDKQLANPEVDTEEVIALIKRDPVLSAEVIQLCNAPAFHRGAKDITSLQQAVVILGREQLRRFVSAVKVREVVEIKPIYYRRFGAEVWRHSLQVAYLAAELATEDQDTAFMLGLIHDVGKIAIFQMLLEAFAKAEPGEQPRSWLFRQVMTSKSLILSAVLARSWLLPPLFSRSLAALANPDNMPTEPLPKAIWTANHISECSMLWQAARLKEPQLNELLARIGMDRKTFDPLHEKLILFTR | not soluble
2 | MSLNRIAFSAAHVVADPLAASDPWLEAAIDWDHTIAYRQRLWDLGLGVAEAMDTAQRGMGLDWPTSLDLIRRSVEAAKAHGPEALVFSGAGTDHLAPEAARSLDDVIRAYEEQVAAVEKVGGRIILMASRALARIGTSAADYETVYGRILSQVREPVIIHWLGDMFDPALAGYWGTRDLDAAMDTAVAIINAHAAKVDGVKISLLDKDKEIAMRRRLDPAVRMYTGDDFNYAELVAGDAQGYSHALLGIFDAIAPAASAALTALAAGDEAGFHDILAPTVPLSRHIFRAPTRFYKTGVVFMAYLNGHQDHFTMVGGQESARSTLHLAELFRLADRAGLLTDPDLAVQRMRAVLAVRGVEAEGHHHHHH | not soluble
3 | MGSDKIHHHHHHMEMNEVIIDENLKESIDLWTFMLPIISHRTTIRKNIHGYMPLHWHDELQFVVIIQGEARFQVNEEAIIVQEGDGLFINSGCLHMVEDGNGSNCVYICLNVPAQSIISRELYTAYVAPYVQATNLPYVLIPSSEMWGQNIIEATLNIHQCLEEQPPYYEMDITTKLTVIWKSLITNGFPLEYDQSAMIKNQRMKAMLQWIHLHYGENIRLDDIAKAGQLSRSECCRYFKRTLKMTPLQYVTDYRIQKSVTLLQQPESNVTDVAYQVGFNSTSYFIDQFRKAMNMTPLRYKKSKLERLID | not soluble
4 | MSLKPNIQFEITGASRILPASGPITNLEILKNFPRTADKSQGFLEKFAEKIGEEFGFHTRYWCHKPWESLDNSRELSSESLAMQAVDKLITHSMSKDVDAFLLGSTTNKRFTGSQAAAVLGNLKLNAPAYDLKTGCSTSLSTLHFAYALMALGYQKILVCCSETLSKVIDPENEKTWIGLADGAASLLLEKSKEGSFTIEKSFFSTDGQYVNAFTTQGVFPPTHEQIDSVGYHLVGDETLMKELAYSRYMQMLDHLLPTEKEKNEITWVIPHQVNRKLIDQVLHENNLNNKIIIWDADTIGNIGGASVLYTLARAVEEKLFDRSGKILLMSVGGGLSYAGQVLNYQEGHHHHHH | soluble
5 | MPILNLNNFLAALGNTPDYGRLFARAEHLAQVQKHLLNAVPFQLRNQCTVGQYTADGLLVIYAGNGTTATRLRHLAPSIRQKMNNAGVKVENIRFSIQPQLHSLESGNVREITRSLSQTAIEHLDKLSDSLPAGSPLQSSLAALLANSRRK | not soluble
6 | MSLADRLTIGEFSRITHLSIRMLRRYHEQDLLVPAEVDPDTGYRYYSPAQIRPALTVRRFRDLDLPLADLRRFLAAESADGPDDGTAQQVVAAHLRRLEDRLGRTQRAVEVLRELLDPEAEREGHHHHHH | not soluble
7 | MGSDKIHHHHHHMTEEKESLAGRQWLVDKVDNSIKEGQTAIPAIENGICQRCGSSCWVRLPSGFLYCRACVGLGRLDEGKLLVRQAAGSHYPARAGMTWTGQLQERQEGVSRFLLEKFAAKEDCLVEAVTGAGKTEMIFPLLAEAFSCGCRVAIATPRIDVVNELYPRLVAAFGEVEIGKYHGREEKEAANEQLVICTTHQLLKYYQAFDLLIIDEIDSFPYAGNPQLHFAAGNAVKKTGSQVFLTATPPEDLLKAARQGKLAIVRLNRRFHCYPLPVPRLDLYVKPFLTKGRLHPKLARRIKMAAKSGHPLLVFLPRIAQMPQYFAAVKRLLPDLRLATVYAQDPDRLEKVEKFRKGDLDLLLTTTILEGGVTLSMSG | not soluble
8 | GPGSMNNRHSGSEKTPATQKKDSLAPSATNADITKVKICSGHTRPICHINYSNIIDGTFWLVTSCHDAKPMLRNGETGDWVGTFEGHKGAVYCSVFNEDATRLVTGSGDYSSMVWNAVTGDKLHTWSHPKYIKSCDWCGNKIATGCVDGLVRIFDAQAYDANPVCFDSTEKVNQVKATYFIDHTTMVTACENTIMKWDLRDTSLPYLRKEIPGLNFLEYTHSNSIVAAHEKSISFIDTTSLEIKSSFTTSDDIECASLSPNGQNVAAGSKLKAKEFTVDGTELESHRGHHGPIFHIRWAPDGKSFTSGAEDGMARIWPSHDIIETYDNEN | not soluble
9 | MMKFDNSYAHLPERFSAAVLPTPVKAPRLIAFNRTLAEELLLDVADLDDDRLAAIFSGNVVPQGAEPLAMAYAGHQFGGFVPQLGDGRAILLGEVIDVNGRRRDIQLKGSGPTPFSRRGDGRAALGPVLREYIVSEAMFALGIPATRALAAVLSGDRVQREVGLPGGVFTRVAASHIRVGTFQFFAAREDDEAIRSLADYVIDRHYPDAKNTENPYLALLRGIAERQCALIARWMMVGFIHGVMNTDNMAVSGETIDFGPCAFLDEYHPNKVFSSIDAQGRYAYNNQPGIAQWNIARLAECLLPLLDPEVEKAAELANAVLADFAAAFPQRWLTGMREKLGLTTEEEGDMDLIQSLLSLMQASEADFTLTFRRLSHAANGDAEPFRGMFIDIAGADAFLTRWRERAGREGISDSERSAAMLSINPAIIPRNHRIEELIEAAVEDGDFEPFHAMLTAIATPFEERPDNFVYMQPPMSHERVFRTFCGTLEHHHHHH | soluble
10 | MRVVVCGGGVIGACAAYFLRRRGIDVTVVERTEVAAAASGKAGGFLARDWCTGTPLDALARRSFALHAQLPEDISGDWGYRPMTAYSGFVASDGDARRDAPSALGWLSDGVVIAQRIGTAETTAIVHPRKFTSAVMNAALAQGAELRPGRVTGITRGTDGMTAGGVEIDGDLVEADAVVIAMGPWSLLAAQWMSLPPVYGQRSPSIVYDTAADAPAEALFLESEEDGSAVSIEVFPRADGSTHITALSDIAPLPLDPAAVTPDRDAIARLQTVSERLSPLFRPERIIAQQACFRPVTQDGLPLIGKVPRSDGLYVATGHNVWGILNAPATGEALAELIAEGATREIDLSPFDPARLTPLDPSLLQARLEHHHHHH | not soluble
11 | MTLSFDDAAATVKTLKTSPSNDELLKLYALFKQGTVGDNTTDKPGMFDLKGKAKWSAWDEKKGLAKDDAQKAYVALVEELIAKYGA | soluble
12 | MSLSFRFAFRPYQRRLRQPLRTARDAQITVRLGIWLRLETDTEVRWGEIAPWPSFGSETLAEAIAFCEAFPPDPEWEDLATAPDSLPACQFGFGCLRESNATDFLPTSAVLLPAGAAALTAIATASPATTYKWKIGLDLESELDLLPQLDRLLPSAAKLRLDANGGLTKAQADRLLQVLTAINERRSGRIEWLEQPLDPSQVDDLLQLVQDWPLVAIALDESVSQLSSLQFWQAQGWPGLYVLKPAIAGWPQTVRQFCQVHHLPVVVSSMFESPIGWRAVAAIAAQLGRADQAQGLGTTAWFTDDWESKTAAALWQHPEGHHHHHH | not soluble
13 | MPQEIPPAVKYKIYPEGAEGIDTVWERPGFKKGEIEARVKDVVILRGEPVPNSYKMLVEATFELPKKDKITQLGLVNRHGLVTRVHYASPFKGAILPGDIILQVNGTTVSFDEKQLTEHVDETTGGASLQSNVKTVKRKPTTTPKTEPVRAPHSLYPDFKVVVGKILNSKSETKITVLVARLKNRMSTSKIPNGILATQDHTIDLAILYQFKYLQLGLNVQQVDRKVVVNYTIPDSVSHCSLNIGEAIIAVDDKPINTLADNRQRFREGFEANGWIRLLVEYPNTDPIKNMVRGQLANVMRTAERPQYLLCGDVRKYFVEGIEALKNGKALAPILKEEEGPGEVGKKKSDAKVTKKDPAVGFNNTTEEFFIPAEWNSKLFVWLPPLKTKVTESASSNMPVKK | not soluble
14 | MYQHDIGKRSAKVKNVVERGAVKKFAEAIGDPNPIYWDEETGKRSRYGRNIAPPTFPRVFDYGVIEGLKLPAKGLIHGEQHFHYERPLFVGEELYCYAEVKDYFEKQSSMGLLGFLVIANNGEDADGNLIFTSTSTIMINEAVRKAMSV | soluble
